In PMC12102759 (2025):

B1: SH3BP2 peptide 410-425 (SH3 domain-binding protein 2), 16-mer library wild type / TNKS ANK (TNKS 12 ANK repeats, residues 174-649) (parent complex)
chain 1: LPHLQRSPPDGQSFRS
chain 2: TGVPAVSGALRELLEACRNGDVSRVKRLVDAANVNAKDMAGRKSSPLHFAAGFGRKDVVEHLLQMGANVHARDDGGLIPLHNACSFGHAEVVSLLLCQGADPNARDNWNYTPLHEAAIKGKIDVCIVLLQHGADPNIRNTDGKSALDLADPSAKAVLTGEYKKDELLEAARSGNEEKLMALLTPLNVNCHASDGRKSTPLHLAAGYNRVRIVQLLLQHGADVHAKDKGGLVPLHNACSYGHYEVTELLLKHGACVNAMDLWQFTPLHEAASKNRVEVCSLLLSHGADPTLVNCHGKSAVDMAPTPELRERLTYEFKGHSLLQAAREADLAKVKKTLALEIINFKQPQSHETALHCAVASLHPKRKQVTELLLRKGANVNEKNKDFMTPLHVAAERAHNDVMEVLHKHGAKMNALDTLGQTALHRAALAGHLQTCRLLLSYGSDPSIISLQGFTAAQMGNEAVQQILSESTPIRTSD

Variants of: B1
Assay: proteomic peptide phage display deep mutational scan (ProP-PD DMS): M13 P8 16-mer library selected against immobilised GST-tagged bait for four days (rounds), NGS of the eluted pools per day and pseudo-replica; bait immobilised on MaxiSorp plates (10 µg), library pre-cleared on GST, 2 h binding at 4 °C, five washes; one round per day, days 1-4; value from days 2 and 3

Row | Variant | screen value
1 | chain 1 Q12T | 0.00582 average fractional NGS count over selection days 2 and 3 (reads of this peptide / all reads for the bait, averaged over …
2 | chain 1 Q12V | 0.000654 average fractional NGS count over selection days 2 and 3 (reads of this peptide / all reads for the bait, averaged over …
3 | chain 1 Q12A | 0.00503 average fractional NGS count over selection days 2 and 3 (reads of this peptide / all reads for the bait, averaged over …
4 | chain 1 Q12F | 0.000426 average fractional NGS count over selection days 2 and 3 (reads of this peptide / all reads for the bait, averaged over …
5 | chain 1 Q12S | 0.000969 average fractional NGS count over selection days 2 and 3 (reads of this peptide / all reads for the bait, averaged over …
6 | chain 1 Q12E | 0.000127 average fractional NGS count over selection days 2 and 3 (reads of this peptide / all reads for the bait, averaged over …
7 | chain 1 Q12W | 0.000548 average fractional NGS count over selection days 2 and 3 (reads of this peptide / all reads for the bait, averaged over …
8 | chain 1 Q12M | 0.00481 average fractional NGS count over selection days 2 and 3 (reads of this peptide / all reads for the bait, averaged over …
9 | chain 1 Q12G | 0.000919 average fractional NGS count over selection days 2 and 3 (reads of this peptide / all reads for the bait, averaged over …
10 | chain 1 P8D | 0.00888 average fractional NGS count over selection days 2 and 3 (reads of this peptide / all reads for the bait, averaged over …
11 | chain 1 P8H | 0.000697 average fractional NGS count over selection days 2 and 3 (reads of this peptide / all reads for the bait, averaged over …
12 | chain 1 P8N | 0.0021 average fractional NGS count over selection days 2 and 3 (reads of this peptide / all reads for the bait, averaged over …
13 | chain 1 P8T | 0.00538 average fractional NGS count over selection days 2 and 3 (reads of this peptide / all reads for the bait, averaged over …
14 | chain 1 P8K | 0.000693 average fractional NGS count over selection days 2 and 3 (reads of this peptide / all reads for the bait, averaged over …
15 | chain 1 P8M | 0.00437 average fractional NGS count over selection days 2 and 3 (reads of this peptide / all reads for the bait, averaged over …
16 | chain 1 P8V | 0.00324 average fractional NGS count over selection days 2 and 3 (reads of this peptide / all reads for the bait, averaged over …
17 | chain 1 P8S | 0.000677 average fractional NGS count over selection days 2 and 3 (reads of this peptide / all reads for the bait, averaged over …
18 | chain 1 L4T | 0.000821 average fractional NGS count over selection days 2 and 3 (reads of this peptide / all reads for the bait, averaged over …
19 | chain 1 L4G | 0.000123 average fractional NGS count over selection days 2 and 3 (reads of this peptide / all reads for the bait, averaged over …
20 | chain 1 L4P | 0.00111 average fractional NGS count over selection days 2 and 3 (reads of this peptide / all reads for the bait, averaged over …
21 | chain 1 L4F | 0.00253 average fractional NGS count over selection days 2 and 3 (reads of this peptide / all reads for the bait, averaged over …
22 | chain 1 L4H | 0.000978 average fractional NGS count over selection days 2 and 3 (reads of this peptide / all reads for the bait, averaged over …
23 | chain 1 L4S | 0.000672 average fractional NGS count over selection days 2 and 3 (reads of this peptide / all reads for the bait, averaged over …
24 | chain 1 L4D | 0.00145 average fractional NGS count over selection days 2 and 3 (reads of this peptide / all reads for the bait, averaged over …
25 | chain 1 L4Y | 0.000355 average fractional NGS count over selection days 2 and 3 (reads of this peptide / all reads for the bait, averaged over …

Row | Variant | screen value
26 | chain 1 L4I | 0.00171 average fractional NGS count over selection days 2 and 3 (reads of this peptide / all reads for the bait, averaged over …
27 | chain 1 L4E | 0.00039 average fractional NGS count over selection days 2 and 3 (reads of this peptide / all reads for the bait, averaged over …
28 | chain 1 L4N | 0.000501 average fractional NGS count over selection days 2 and 3 (reads of this peptide / all reads for the bait, averaged over …
29 | chain 1 L4Q | 0.000264 average fractional NGS count over selection days 2 and 3 (reads of this peptide / all reads for the bait, averaged over …
30 | chain 1 L4W | 0.00434 average fractional NGS count over selection days 2 and 3 (reads of this peptide / all reads for the bait, averaged over …
31 | chain 1 L4M | 0.0015 average fractional NGS count over selection days 2 and 3 (reads of this peptide / all reads for the bait, averaged over …
32 | chain 1 H3I | 0.000522 average fractional NGS count over selection days 2 and 3 (reads of this peptide / all reads for the bait, averaged over …
33 | chain 1 H3Q | 0.000537 average fractional NGS count over selection days 2 and 3 (reads of this peptide / all reads for the bait, averaged over …
34 | chain 1 H3F | 0.000397 average fractional NGS count over selection days 2 and 3 (reads of this peptide / all reads for the bait, averaged over …
35 | chain 1 H3Y | 0.00044 average fractional NGS count over selection days 2 and 3 (reads of this peptide / all reads for the bait, averaged over …
36 | chain 1 H3W | 0.000238 average fractional NGS count over selection days 2 and 3 (reads of this peptide / all reads for the bait, averaged over …
37 | chain 1 H3V | 0.00187 average fractional NGS count over selection days 2 and 3 (reads of this peptide / all reads for the bait, averaged over …
38 | chain 1 H3N | 0.000146 average fractional NGS count over selection days 2 and 3 (reads of this peptide / all reads for the bait, averaged over …
39 | chain 1 H3G | 0.000244 average fractional NGS count over selection days 2 and 3 (reads of this peptide / all reads for the bait, averaged over …
40 | chain 1 H3M | 0.0014 average fractional NGS count over selection days 2 and 3 (reads of this peptide / all reads for the bait, averaged over …
41 | chain 1 S13F | 0.000366 average fractional NGS count over selection days 2 and 3 (reads of this peptide / all reads for the bait, averaged over …
42 | chain 1 S13P | 0.00144 average fractional NGS count over selection days 2 and 3 (reads of this peptide / all reads for the bait, averaged over …
43 | chain 1 S13A | 0.000295 average fractional NGS count over selection days 2 and 3 (reads of this peptide / all reads for the bait, averaged over …
44 | chain 1 S13V | 0.00486 average fractional NGS count over selection days 2 and 3 (reads of this peptide / all reads for the bait, averaged over …
45 | chain 1 S13H | 0.00169 average fractional NGS count over selection days 2 and 3 (reads of this peptide / all reads for the bait, averaged over …
46 | chain 1 S13I | 0.0065 average fractional NGS count over selection days 2 and 3 (reads of this peptide / all reads for the bait, averaged over …
47 | chain 1 S13Y | 0.00204 average fractional NGS count over selection days 2 and 3 (reads of this peptide / all reads for the bait, averaged over …
48 | chain 1 S13E | 0.00174 average fractional NGS count over selection days 2 and 3 (reads of this peptide / all reads for the bait, averaged over …
49 | chain 1 S13N | 0.000503 average fractional NGS count over selection days 2 and 3 (reads of this peptide / all reads for the bait, averaged over …
50 | chain 1 S7V | 0.00627 average fractional NGS count over selection days 2 and 3 (reads of this peptide / all reads for the bait, averaged over …

Row | Variant | screen value
51 | chain 1 S7N | 0.00621 average fractional NGS count over selection days 2 and 3 (reads of this peptide / all reads for the bait, averaged over …
52 | chain 1 S7M | 0.00193 average fractional NGS count over selection days 2 and 3 (reads of this peptide / all reads for the bait, averaged over …
53 | chain 1 S7Y | 0.00213 average fractional NGS count over selection days 2 and 3 (reads of this peptide / all reads for the bait, averaged over …
54 | chain 1 S7Q | 0.00222 average fractional NGS count over selection days 2 and 3 (reads of this peptide / all reads for the bait, averaged over …
55 | chain 1 S7L | 0.00604 average fractional NGS count over selection days 2 and 3 (reads of this peptide / all reads for the bait, averaged over …
56 | chain 1 S7F | 0.00476 average fractional NGS count over selection days 2 and 3 (reads of this peptide / all reads for the bait, averaged over …
57 | chain 1 S7H | 0.000827 average fractional NGS count over selection days 2 and 3 (reads of this peptide / all reads for the bait, averaged over …
58 | chain 1 G11N | 0.000201 average fractional NGS count over selection days 2 and 3 (reads of this peptide / all reads for the bait, averaged over …
59 | chain 1 L1I | 0.00049 average fractional NGS count over selection days 2 and 3 (reads of this peptide / all reads for the bait, averaged over …
60 | chain 1 L1Y | 0.00138 average fractional NGS count over selection days 2 and 3 (reads of this peptide / all reads for the bait, averaged over …
61 | chain 1 L1A | 0.00143 average fractional NGS count over selection days 2 and 3 (reads of this peptide / all reads for the bait, averaged over …
62 | chain 1 L1H | 0.00559 average fractional NGS count over selection days 2 and 3 (reads of this peptide / all reads for the bait, averaged over …
63 | chain 1 L1F | 0.000588 average fractional NGS count over selection days 2 and 3 (reads of this peptide / all reads for the bait, averaged over …
64 | chain 1 L1V | 0.00338 average fractional NGS count over selection days 2 and 3 (reads of this peptide / all reads for the bait, averaged over …
65 | chain 1 L1G | 0.000775 average fractional NGS count over selection days 2 and 3 (reads of this peptide / all reads for the bait, averaged over …
66 | chain 1 L1E | 0.00294 average fractional NGS count over selection days 2 and 3 (reads of this peptide / all reads for the bait, averaged over …
67 | chain 1 L1N | 0.0011 average fractional NGS count over selection days 2 and 3 (reads of this peptide / all reads for the bait, averaged over …
68 | chain 1 L1D | 0.00232 average fractional NGS count over selection days 2 and 3 (reads of this peptide / all reads for the bait, averaged over …
69 | chain 1 L1S | 0.00146 average fractional NGS count over selection days 2 and 3 (reads of this peptide / all reads for the bait, averaged over …
70 | chain 1 L1W | 0.000782 average fractional NGS count over selection days 2 and 3 (reads of this peptide / all reads for the bait, averaged over …
71 | chain 1 L1K | 0.000567 average fractional NGS count over selection days 2 and 3 (reads of this peptide / all reads for the bait, averaged over …
72 | chain 1 R15K | 0.00112 average fractional NGS count over selection days 2 and 3 (reads of this peptide / all reads for the bait, averaged over …
73 | chain 1 R15D | 0.000883 average fractional NGS count over selection days 2 and 3 (reads of this peptide / all reads for the bait, averaged over …
74 | chain 1 R15P | 0.00212 average fractional NGS count over selection days 2 and 3 (reads of this peptide / all reads for the bait, averaged over …
75 | chain 1 R15T | 0.00759 average fractional NGS count over selection days 2 and 3 (reads of this peptide / all reads for the bait, averaged over …
